Reference: publication PMC10562560, “Molecular basis for cellular retinoic acid-binding protein 1 in modulating CaMKII activation” (Frontiers in Molecular Biosciences, 2023)
One block for each molecule: values may come before it.

Tests used:
[1] = biological target: His-tagged CRABP1 R29A (Mus musculus); experiment: pull-down; purified His-CRABP1 (WT or mutant, 5 uM) held on Ni-NTA resin as bait; 250 ug pre-cleared lysate of HEK293T cells expressing GFP-CaMKII (DMSO or ionomycin 10 uM, 10 min) as prey; 50 mM Tris pH 8.0, 150 mM NaCl, 0.2% NP-40, 20% glycerol, 200 mM imidazole, overnight at 4°C; Western blot with anti-GFP and anti-His; densitometry gives the CCI (n = 5)
[2] = biological target: His-tagged CRABP1 H94A (Mus musculus); experiment: as above
[3] = biological target: His-tagged CRABP1 T96A (Mus musculus); experiment: as above
[4] = biological target: T1, 15N-labeled wild-type cellular retinoic acid-binding protein 1 (CRABP1) (Mus musculus, UniProt P62965 2-137, 15N-labeled); experiment: NMR titration; 15N-1H HSQC of 15N-labeled CRABP1 (19 uM) without and with CaMK-R peptide (200 uM); 30 mM d11-Tris-d3-acetate pH 6.2, 75 mM Na2SO4, 10 uM ZnCl2, 1 mM TCEP, 30°C; details: both partners purified
T1 construct: also called 15N-labeled CRABP1; 15N WT CRABP1; source: expressed and purified as described in Park et al. (2019); SEC
T1 sequence (P62965 2-137): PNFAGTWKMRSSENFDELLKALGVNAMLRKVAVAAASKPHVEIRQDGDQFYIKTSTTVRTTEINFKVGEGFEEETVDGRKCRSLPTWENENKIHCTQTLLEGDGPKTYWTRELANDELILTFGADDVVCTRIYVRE

CRABP1–CaMKII Complex Index (CCI; ratio of inactive to active CaMKII pulled down) [1]: 1
Molecule: GFP-CaMKII beta, inactive (from vehicle-treated HEK293T cells) (from UniProt P08413 1-542) (cell lysate)

CRABP1–CaMKII Complex Index (CCI; ratio of inactive to active CaMKII pulled down) [2]: 1
CRABP1–CaMKII Complex Index (CCI; ratio of inactive to active CaMKII pulled down) [3]: 1
Molecule: GFP-CaMKII beta, inactive (from vehicle-treated HEK293T cells) (from UniProt P08413 1-542) (enzyme)

binding result [4]: binds
B1: CaMK-R peptide (29-residue peptide, residues 281–309 of the regulatory segment of CaMKII alpha) (peptide, UniProt P11798 281-309, looked up)
peptide: MHRQETVDCLKKFNARRKLKGAILTTMLA
notes: also called CAMKII-R; CaMKII peptide; source: synthetic peptide (University of Minnesota Peptide Synthesis Services)
